The results in this text go back to publication PMC3852774.

In data set [1] the target is Tth Man5 β-mannosidase from Thermotoga thermarum DSM 5069 (Thermotoga thermarum DSM 5069). In words: SEC; Superdex 200 10/30 GL column on an AKTA FPLC system; MW from the calibration curve of the gel filtration column. Background: In gel filtration, larger molecules generally elute earlier.
Substrate in the data set “purified protein”: O=[N+]([O-])c1ccc(O[C@@H]2O[C@H](CO)[C@@H](O)[C@H](O)[C@@H]2O)cc1
The experiment in a line: purified protein. The settings on record: 50 mM imidazole-potassium buffer pH 5.5, 85°C, error given as ±0.5.

As a reminder, the stoichiometry N is the number of molecules, sites or subunits per partner or assembly. In the case of “Tth Man5 β-mannosidase from Thermotoga thermarum DSM 5069 (enzyme)”, the stoichiometry N in data set [1] was 7.

B1: Tth Man5 β-mannosidase (Pseudothermotoga thermarum DSM 5069) (protein)
chain: MDFLLGINYWSRSGAMYMWEDEYFNEEVIENEIIEMKNLGMNICRSFLFLPTFFPKPNKISEKHVERYLKFLNLCEEHGLKTLLTFIVGHMSGENFDPPFRNQRDLYMDEFMLQQQCFFVKSIVEKVRSSPAVYGYILSNEMPLYGGTGEPEKVLNWVKKLVEVIKSVDPTRPVGTGDGCWNVFGGENGFNLREISKIVDYLGPHVYLSETDEYRHSMIPEFVIRYLSQYDLPILYEEFGASSAQALDENIALYYREVLINCLINGAIGALGWCLNDFNYPNMKPYLHHPFELKFGIFKVDGARKPAAEEIVKFKNFVDSLENIQYPNAEACILVPSYYNKQYPFSFDDPKETFKHLLQATVLCAKAGFVVDLVEEENYKRWKSYKLIILPSERKYLATTWENLHKYVQAGGNLYISYYWGKYDFHQGIWSQNLESLIGCKLNLRYGLTSSLPSKVKLEYGGLTWKLNVEKCNEWEKSYAPIVSILETAESIELGQSDLQLVKNKVGSGKVFFINFPLEHILSVNEKINLSDLSHLIYRCIAKQASLNLCYCDNQRVRVRKIKSGRKTLYLIQNIAWDKEQVQTIFDNSSTYHVQIELDPKEYKLLNF
As usually defined, the Km is the substrate concentration at which the rate is half of its maximum. In general, Vmax refers to the top rate of the reaction or transport when substrate is in excess. By kcat is commonly meant the maximal rate divided by the concentration of active sites. One may read the kcat/Km as the turnover number divided by the Michaelis constant. Consider B1, for which, in the data set “purified protein”, the Km came out at 4.36 ± 0.05 mM, the Vmax was 227 µmol/min/mg, the kcat stood at 1920 s⁻¹ and the specificity constant (kcat/Km) came to 441000 M⁻¹ s⁻¹.
